Measured values published in the supplement of paper PMC9170038.

Tested on: MS2 coat protein
Test: apparent KD of MS2 coat protein; designed switch direction (-1 OFF switch, 1 ON switch): 1; higher = weaker reporter binding
Outline: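 Apparent KD, taken as the median over clusters for each design, was obtained by curve-fitting normalised cluster fluorescence. Designed RNA switches had been transcribed on Illumina chips by stalled E. coli RNA polymerase and titrated with SNAP-549-labelled MS2 coat protein, doubling from 0.7 or 1.5 nM to 3 µM.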

[1] = Eterna round: R95, input ligand: FMN 200 uM
[2] = Eterna round: R95, input ligand: microRNA oligo, concentration not stated
[3] = Eterna round: R95, input ligand: none
[4] = input ligand: microRNA oligo, concentration not stated

Sequence | apparent KD of MS2 coat protein [1] [nM] | apparent KD of MS2 coat protein [2] [nM] | apparent KD of MS2 coat protein [3] [nM] | apparent KD of MS2 coat protein (input ligand: FMN 200 uM) [nM] | apparent KD of MS2 coat protein [4] [nM] | apparent KD of MS2 coat protein (input ligand: none) [nM]
AACAAUCUAUCUGAGGAUAUCAUGAUAAUAACAUGAGGAUCACCCAUGUGCAGGAAAACUGCAUAUGAGAAGGCAGAUAGAUUGG [Mat - Same State 2 - Mod - D20] (puzzle: Same State 2) | 100 | 29.4 | 26.5 | – | – | –
AACAAUCUAUUUGAGGAUAUCAUGAAAUAAACAUGAGGAUCACCCAUGUGCAGGAAAACUGCAUAUGAGAAGGCAGAUAGAUUGA [salish99_ss2_r3_025] (puzzle: Same State 2) | 25.4 | 30.2 | 24.1 | – | – | –
AACCCACAUGAGGAUCACCCAUGUGUCUGAGGCACAGGAUAUCGACAGGCAAGACACCUGCGAGAAGGGUGACCUC [Same State 1 - Mod of Vinnie Diatater v.1] (puzzle: Same State 1) | 18.4 | 8.17 | 27.9 | – | – | –
AAGAAACAUGAGGAUCACCCAUGUAGAAAUAUGGGAGGAUAUACGAAGACGAAAGUCAAAGUAGAAGGCCUAAAAG [Mat - Same State 1 - Eli mod - D107] (Eterna round: R96, puzzle: Same State 1) | – | – | – | 23.4 | 54 | 110
AAGAAACAUGAGGAUCACCCAUGUCGAAAUAACACAGGAUAUCGCACGACUACGGUGCGGCGAGAAGGGUGAGGAA [Estere] (puzzle: Same State 1) | 54.7 | 78.4 | 94.7 | – | – | –
AAGAGGUCCGCAGGAUAUACCCGGGCUCGCCGGGUAGAAGGGUGAACCUCAUAACCCACCACACACAUGAGGAUCACCCAUGUA [Tedile] (Eterna round: R96, puzzle: Same State NG 1) | – | – | – | 113 | 219 | 4.57
AAUAAACAUGAGGAUCACCCAUGUAGUGCUUUAGCAGGAUAUGUGAGGAUCAAAUCCAUGGCAGAAGGGUUAUGGC [Inondiorbi] (puzzle: Same State 1) | 20.1 | 43 | 67.1 | – | – | –
AAUAUUAAUGCAGGAUAUGAUUAACAUGAGGAUCACCCAUGUGGUGUUGUGAGUAAGGAGAGUGAUCAGAAGGGCAUUUUUUUU [JMF's solution 36] (Eterna round: R96, puzzle: Same State NG 2) | – | – | – | 648 | 349 | 529
AAUUAAGAUCUAGGAUAUCACGUCGUUUAGACGUGAGAAGGAGAUCAUAACAUGAGGAUCACCCAUGUAUUACAUGAAUUAAUU [SSNG1/6-B3] (Eterna round: R96, puzzle: Same State NG 1) | – | – | – | 24.2 | 22.9 | 28.5
AAUUAAUUAAUUAAGUACAUGAGGAUCACCCAUGUAAGUGAUCAGGAUAUCAGCUCGAAUAGAGCUGAGAAGGGAUCCAUGUAC [SSNG3/15-A1] (Eterna round: R96, puzzle: Same State NG 3) | – | – | – | 332 | 322 | 375
AAUUAUUCACAUGAGGAUCACCCAUGUGAUAUUAUUAUUACAAGCUUUUUGCUCGUCUUGUUCCUCAGUGAAUAAUU [Default title] (puzzle: Sensor for hsa-mir-208a version 2) | 18.3 | 74.5 | 15.9 | – | – | –
AAUUAUUGACAUGAGGAUCACCCAUGUAAAGCAUGGAUUAACAAGCUACAAGCUUUUUGCUCGUCUUAUCCUAUAGG [Improved Bojan's design] (puzzle: Sensor for hsa-mir-208a version 2) | 55.9 | 34.6 | 58.1 | – | – | –
ACAAGACAUGAGGAUCACCCAUGUCCCAAUGACACAGGAUAUCGGUAGGCAUAGCCUACGCGAGAAGGGUGACUUC [Same State 1 - Mod of Vinnie Gere v.1] (puzzle: Same State 1) | 198 | 68.3 | 73 | – | – | –
